{
  "source": "patent US20240293585A1",
  "about": "“HIGH MOLECULAR WEIGHT ZWITTERION-CONTAINING POLYMERS” (Kodiak Sciences Inc., priority 0001, published 2024)",
  "origin": "cited, not measured here",
  "data": [
    {"substance": "rhEPO: 30.4 kDa protein with 165 amino acids; native form of human erythropoietin with 3 N-linked chains", "values": [
      {"measurement": "mean terminal half life after intravenous injection", "setting": "human, intravenous", "result": 7, "unit": "h"},
      {"measurement": "mean terminal half life after subcutaneous injection", "setting": "human, subcutaneous", "result": 16, "unit": "h"}
    ]},
    {"substance": "Mircera: PEGylated form of recombinant human erythropietin [reference compound]", "values": [
      {"measurement": "in vivo half life after subcutaneous injection", "setting": "chronic renal disease patients, subcutaneous", "result": "approximately 140 hours"}
    ]},
    {"substance": "Cimzia: Fab′ against TNFa conjugated with a 40 kDa branched polymer [reference compound]", "values": [
      {"measurement": "Human half life after subcutaneous injection", "setting": "human, subcutaneous", "result": 311, "unit": "h"}
    ]}
  ]
}
